Experimental data: article PMC4678016
pKd: −log10 of the molar value.

Target: capping protein (CP), purified, as used in pyrene-actin polymerization assays
Assay: pyrene-actin seeded polymerization assay

For “CARMIL2-CBR (CP-binding region of human CARMIL2b, Pro-961 to Arg-1072) (from UniProt Q6F5E8-2 961-1072) (domain or fragment)”, the pKd was 8.54.
